According to article PMC10102205, “Active and stable alcohol dehydrogenase-assembled hydrogels via synergistic bridging of triazoles and metal ions” (Nature Communications, 2023):

T1: TbSADH (Thermoanaerobacter brockii, UniProt P14941)
T1 construct: gene adh; recombinant from E. coli BL21(DE3), pET28a or pET22b vector, purified by AKTA; homotetramer
T1 sequence (P14941 1-352): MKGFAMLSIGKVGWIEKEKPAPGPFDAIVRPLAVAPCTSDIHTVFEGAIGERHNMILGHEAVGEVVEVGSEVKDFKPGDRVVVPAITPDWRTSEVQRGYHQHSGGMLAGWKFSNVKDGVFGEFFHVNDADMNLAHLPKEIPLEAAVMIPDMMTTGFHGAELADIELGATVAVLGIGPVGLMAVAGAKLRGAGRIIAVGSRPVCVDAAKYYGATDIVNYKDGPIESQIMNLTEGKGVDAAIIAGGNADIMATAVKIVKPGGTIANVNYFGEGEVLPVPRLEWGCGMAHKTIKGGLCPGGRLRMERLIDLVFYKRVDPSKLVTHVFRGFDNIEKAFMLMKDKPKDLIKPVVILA


Tests used:
TbSADH = target: T1, TbSADH; experiment: isothermal titration calorimetry; assay type: binding
[1] = substrate: CC(=O)c1ccccc1; experiment: asymmetric reduction, chiral HPLC, Michaelis–Menten fit; assay type: biochemical, Thermoanaerobacter brockii; settings: free enzyme, not gelated, general assay: NADP^+ 1 mM, 10% IPA, phosphate buffer 50 mM pH 7.4, 30 °C

Molecule | Kd (TbSADH) | Km [1] | kcat [1]
Cc1nnc[nH]1 [3-Me-3N, 1H-3-methyl-1,2,4-triazole] | 770 µM | – | –
TbSADH (Thermoanaerobacter brockii) (protein, recombinant from E. coli BL21(DE3), pET28a or pET22b vector, purified by AKTA; homotetramer) MKGFAMLSIGKVGWIEKEKPAPGPFDAIVRPLAVAPCTSDIHTVFEGAIGERHNMILGHEAVGEVVEVGSEVKDFKPGDRVVVPAITPDWRTSEVQRGYHQHSGGMLAGWKFSNVKDGVFGEFFHVNDADMNLAHLPKEIPLEAAVMIPDMMTTGFHGAELADIELGATVAVLGIGPVGLMAVAGAKLRGAGRIIAVGSRPVCVDAAKYYGATDIVNYKDGPIESQIMNLTEGKGVDAAIIAGGNADIMATAVKIVKPGGTIANVNYFGEGEVLPVPRLEWGCGMAHKTIKGGLCPGGRLRMERLIDLVFYKRVDPSKLVTHVFRGFDNIEKAFMLMKDKPKDLIKPVVILA | – | 17.86 mM | 2.46 s⁻¹
